In patent publication US9327008B2, “Cell-permeant peptide-based inhibitor of kinases” (Purdue Research Foundation, priority 2008, dated 2016):

Columns and labels:
Src (residues 1-530) = molecular target: T1, Src (residues 1-530) (Homo sapiens, UniProt P12931); experiment: Millipore radiometric kinase activity assay, SRC (1-530) (h); format: biochemical
T1 construct: SRC (1-530) (h) (5-10 mU) is incubated; purchased Millipore (radiometric assay service)
Method: (§1) A commercial radiometric assay service (Millipore, Billerica, Mass.) was used to test the specificity and potency of peptides containing a coupled transduction domain and therapeutic domain, hereinafter “complete peptides”). In these assays, if the kinase is not inhibited by an inhibitor peptide, a positively charged substrate is phosphorylated with a radiolabeled phosphate group from an ATP.
(§2) In a final reaction volume of 25 μL, SRC (1-530) (h) (5-10 mU) is incubated with 8 mM MOPS pH 7.0, 0.2 mM EDTA, 500 mM […] [SEQ ID NO: 58], 10 mM MgAcetate and [γ-^33P-ATP] (specific activity approx. 500 cpm/pmol, concentration as required). The reaction is initiated by the addition of the MgATP mix. After incubation for 40 minutes at room temperature, the reaction is stopped by the addition of 5 μL of a 3% phosphoric acid solution. 10 μL of the reaction is then spotted onto a P30 filtermat and washed three times for 5 minutes in 75 mM phosphoric acid and once in methanol prior to drying and scintillation counting.
(§3) IC50 values for inhibitor peptides were determined using Millipore's IC50Profiler Express service. The IC50 value was estimated from a 10-point curve of one-half log dilutions. For peptides tested for specificity, the concentration of the peptides that inhibited approximately 95% of MK2 activity was chosen to profile against a battery of kinases related to MK2, cell viability, or human disease from MilliporeKinaseProfiler service. In both assays, compounds were supplied in dimethylsulfoxide (DMSO). Every kinase activity measurement was conducted in duplicate.
(§4) Therapeutic inhibitor peptides were assayed for activity against human kinases related to MK2, cell viability, or human disease. The assays were performed using concentrations of therapeutic inhibitor peptides that yielded 2% to 8% of normal MK2 activity. Error is reported as the standard deviation between 2 samples, and “c” is rat AMPK whereas all other kinases used are human kinases.

PKG1β = molecular target: T2, PKG1β (Homo sapiens, UniProt Q13976); experiment: Millipore radiometric kinase activity assay, PKG1β (h); format: biochemical
T2 construct: purchased Millipore (radiometric assay service)
T2 sequence (Q13976 1-686 isoform Q13976-2): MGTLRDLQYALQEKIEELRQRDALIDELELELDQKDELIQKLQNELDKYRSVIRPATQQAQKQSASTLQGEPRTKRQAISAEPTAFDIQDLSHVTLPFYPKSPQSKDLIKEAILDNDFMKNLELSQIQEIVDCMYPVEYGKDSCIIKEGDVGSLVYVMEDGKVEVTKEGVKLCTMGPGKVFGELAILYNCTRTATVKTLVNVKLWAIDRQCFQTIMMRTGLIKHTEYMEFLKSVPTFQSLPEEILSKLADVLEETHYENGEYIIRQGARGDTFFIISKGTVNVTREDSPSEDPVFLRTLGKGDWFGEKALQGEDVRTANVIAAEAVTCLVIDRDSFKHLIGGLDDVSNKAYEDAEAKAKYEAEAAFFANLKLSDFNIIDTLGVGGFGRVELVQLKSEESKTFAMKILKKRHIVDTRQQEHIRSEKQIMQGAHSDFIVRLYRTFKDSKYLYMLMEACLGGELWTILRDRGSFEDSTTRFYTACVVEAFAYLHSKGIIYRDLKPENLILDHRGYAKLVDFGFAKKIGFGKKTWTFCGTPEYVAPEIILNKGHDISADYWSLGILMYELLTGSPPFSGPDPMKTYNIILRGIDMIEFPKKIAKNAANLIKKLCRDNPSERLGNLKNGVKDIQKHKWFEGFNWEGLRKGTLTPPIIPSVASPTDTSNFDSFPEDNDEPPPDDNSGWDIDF
Method: as §1
as §2, with “PKG1β” for “SRC (1-530)”, “10 μM cGMP, 200 μM” for “500 mM”, “62],” for “58],”
as §3, §4

| Sequence | Src (residues 1-530) Kinase Activity (%) (+SD %) (Src (residues 1-530); peptide 100 μM) | PKG1β Kinase Activity (%) (+SD %) (PKG1β; peptide 100 μM) | Src (residues 1-530) Kinase Activity (%) (+SD %) (Src (residues 1-530); peptide 30 μM) | PKG1β Kinase Activity (%) (+SD %) (PKG1β; peptide 30 μM) |
| --- | --- | --- | --- | --- |
| KAFAKLAARLYRKALARQLGVAA | 3 (0) % | 24 (5) % |  |  |
| WLRRIKAWLRRIKALNRQLGVAA | 5 (1) % | 15 (1) % | 6 (1) % | 15 (4) % |
